Reference: publication PMC13674618, “Electropolymerized Aptasensor for Femtogram‐Level Cytokine Detection”

Assays:
[1] = target: Tumour necrosis factor-alpha (TNF-alpha) (Homo sapiens, UniProt P01375 77-233); experiment: OECT gate-voltage shift; negligible, non-monotonic shifts over the tested range; Kelvin probe in agreement; PBS (immobilization and rinse PBS pH 7.4); FO-SPR 10 min per concentration step; aptamer folded 95 C 5 min, ice 15 min, RT 5 min; assay temperature not stated; details: protein: recombinant; chain copies: 3; label: none
Interleukin-6 (IL-6) = Interleukin-6 (IL-6) (UniProt P05231 30-212); experiment: FO-SPR; aptamer immobilized on pALT5c film; 100 fg/mL to 1 ug/mL IL-6 in PBS; no response without aptamer; PBS (immobilization and rinse PBS pH 7.4); FO-SPR 10 min per concentration step; aptamer folded 95 C 5 min, ice 15 min, RT 5 min; assay temperature not stated; details: label: none
Chain of Interleukin-6 (IL-6) (P05231 30-212): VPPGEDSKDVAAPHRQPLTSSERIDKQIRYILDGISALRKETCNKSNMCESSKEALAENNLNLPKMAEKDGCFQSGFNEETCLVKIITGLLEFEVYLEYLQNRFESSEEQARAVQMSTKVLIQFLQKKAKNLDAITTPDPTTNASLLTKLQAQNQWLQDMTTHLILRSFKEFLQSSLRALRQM

Chain of Tumour necrosis factor-alpha (TNF-alpha) (P01375 77-233): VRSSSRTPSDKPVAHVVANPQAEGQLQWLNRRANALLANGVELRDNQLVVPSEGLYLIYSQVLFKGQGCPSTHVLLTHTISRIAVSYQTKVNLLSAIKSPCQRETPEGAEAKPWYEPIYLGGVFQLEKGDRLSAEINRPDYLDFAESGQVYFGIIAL

## CTTCCAACGCTCGTATTGTCAGTCTTTAGT (ssDNA, 5'-AminoC6) [IL-6 specific aptamer (Apt)]
[1]
  binding result: no binding
Interleukin-6 (IL-6)
  binding result: binds
